Data on 28 molecules can be found in patent publication US20260209386A1 (MYTHIC THERAPEUTICS, published 2026).

T1: Human PTK7 (human, UniProt Q13308 31-1070)
T1 sequence: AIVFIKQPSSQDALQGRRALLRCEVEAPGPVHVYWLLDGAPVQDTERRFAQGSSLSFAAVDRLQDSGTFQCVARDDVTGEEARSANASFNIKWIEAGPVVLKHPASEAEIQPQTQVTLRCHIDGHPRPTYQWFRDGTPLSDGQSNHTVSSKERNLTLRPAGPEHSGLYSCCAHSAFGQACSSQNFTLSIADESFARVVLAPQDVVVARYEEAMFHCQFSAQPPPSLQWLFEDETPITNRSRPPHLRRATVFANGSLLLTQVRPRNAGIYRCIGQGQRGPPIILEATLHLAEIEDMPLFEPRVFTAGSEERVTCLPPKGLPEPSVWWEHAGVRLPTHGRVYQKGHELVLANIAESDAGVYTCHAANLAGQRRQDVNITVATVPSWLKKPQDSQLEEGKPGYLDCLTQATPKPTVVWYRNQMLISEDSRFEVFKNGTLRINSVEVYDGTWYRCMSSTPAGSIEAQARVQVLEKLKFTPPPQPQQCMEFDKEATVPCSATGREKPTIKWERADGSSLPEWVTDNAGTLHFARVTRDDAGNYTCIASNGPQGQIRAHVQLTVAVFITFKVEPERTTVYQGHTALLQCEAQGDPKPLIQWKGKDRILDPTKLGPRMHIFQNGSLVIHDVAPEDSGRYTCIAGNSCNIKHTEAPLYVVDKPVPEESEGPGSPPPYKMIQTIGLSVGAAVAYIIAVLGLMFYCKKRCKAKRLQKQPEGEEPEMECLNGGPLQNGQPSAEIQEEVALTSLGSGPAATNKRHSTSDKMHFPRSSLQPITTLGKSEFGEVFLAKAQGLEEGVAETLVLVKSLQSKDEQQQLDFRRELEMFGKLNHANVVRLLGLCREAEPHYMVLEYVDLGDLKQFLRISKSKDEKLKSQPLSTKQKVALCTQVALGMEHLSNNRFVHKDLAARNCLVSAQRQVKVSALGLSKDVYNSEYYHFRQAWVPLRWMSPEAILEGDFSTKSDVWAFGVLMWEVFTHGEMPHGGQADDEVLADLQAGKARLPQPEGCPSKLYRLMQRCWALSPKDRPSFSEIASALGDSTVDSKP

T2: Human PTK7 Protein, His Tag (Acro Biosystems) (human, UniProt Q13308 31-704)
T2 construct: Bought His-tagged protein; also called CCK4; not shown: His tag
T2 sequence: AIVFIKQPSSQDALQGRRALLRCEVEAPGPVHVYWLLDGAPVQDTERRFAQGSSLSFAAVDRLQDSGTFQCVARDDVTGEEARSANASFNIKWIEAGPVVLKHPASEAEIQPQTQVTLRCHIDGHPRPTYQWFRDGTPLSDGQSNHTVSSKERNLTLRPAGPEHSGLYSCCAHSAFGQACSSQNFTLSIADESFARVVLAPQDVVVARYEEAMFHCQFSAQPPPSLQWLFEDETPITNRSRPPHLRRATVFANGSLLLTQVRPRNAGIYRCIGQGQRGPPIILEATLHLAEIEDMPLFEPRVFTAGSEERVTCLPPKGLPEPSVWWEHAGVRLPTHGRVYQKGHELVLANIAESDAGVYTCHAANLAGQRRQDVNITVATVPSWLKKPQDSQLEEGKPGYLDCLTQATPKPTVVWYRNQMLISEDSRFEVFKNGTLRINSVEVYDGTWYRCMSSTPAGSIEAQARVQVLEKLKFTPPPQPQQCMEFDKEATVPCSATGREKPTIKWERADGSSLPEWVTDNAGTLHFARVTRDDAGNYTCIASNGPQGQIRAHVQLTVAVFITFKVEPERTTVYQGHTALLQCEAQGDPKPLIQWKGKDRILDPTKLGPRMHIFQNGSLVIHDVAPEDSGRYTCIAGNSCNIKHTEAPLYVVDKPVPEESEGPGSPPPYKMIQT

B1: MYT11326 (antibody, V domains shown)
VH: EVQLVESGGGLVQPGGSLRLSCTASGIDLSRYSMGWVRQAPGKGLEWVGIISYGGSTYYASWAKGRFTISRDTSKNTVYLQMNSLRAEDTAVYFCARVGYPGYSGYGYAFDAFDPWGQGTLVTVSS
VL: EIVMTQSPSTLSASVGDRVIITCQSSKSVYNDNWLSWYQQKPGKAPKLLIYGASTLASGVPSRFSGSGSGAEFTLTISSLQPDDFATYYCAGHYSSSSDNGFGQGTKLTVL
B2: MYT11337 (antibody, V domains shown)
VH: B1 VH
VL: B1 VL with H93G, D99A
B3: MYT11332 (antibody, V domains shown)
VH: B1 VH
VL: B1 VL with H93G, D99H
B4: MYT11327 (antibody, V domains shown)
VH: B1 VH
VL: B1 VL with H93G, Y94H
B5: MYT11328 (antibody, V domains shown)
VH: B1 VH
VL: B1 VL with H93G, S95H
B6: MYT11331 (antibody, V domains shown)
VH: B1 VH
VL: B1 VL with H93G, S98H
B7: MYT11346 (antibody, V domains shown)
VH: EVQLVESGGGLVQPGGSLRLSCTASGIDLSNYHVIWVRQAPGKGLEWVGIIYTYDTTYYANWAKGRFTISRDTSKNTVYLQMNSLRAEDTAVYFCARSFSDISDLIKLWGQGTLVTVSS
VL: EIVMTQSPSTLSASVGDRVIITCQASQSLYNNKDLAWYQQKPGKAPKLLIYEASKLASGVPSRFSGSGSGAEFTLTISSLQPDDFATYYCLGEFSCGSGDCLAFGQGTKLTVL
B8: MYT11418 (antibody, V domains shown)
VH: B7 VH with H33A
VL: B7 VL with E52A
B9: MYT11027 (antibody, V domains shown)
VH: EVQLVESGGGLVQPGGSLRLSCTASHLSLSSYWMSWVRQAPGKGLEWVGVISAGGNTYYANWAKGRFTISRDTSKNTVYLQMNSLRAEDTAVYFCARGDDGYTNAAYVSNLWGQGTLVTVSS
VL: EIVMTQSPSTLSASVGDRVIITCQASQSISSWLSWYQQKPGKAPKLLIYKASTLASGVPSRFSGSGSGAEFTLTISSLQPDDFATYYCQSYFDSTTIAFGQGTKLTVL
notes: MYT9361 HC variant
B10: MYT11031 (antibody, V domains shown)
VH: B9 VH with H26G, S30H
VL: B9 VL
notes: MYT9361 HC variant
B11: MYT11029 (antibody, V domains shown)
VH: B9 VH with H26G, S28H
VL: B9 VL
notes: MYT9361 HC variant
B12: MYT11039 (antibody, V domains shown)
VH: B9 VH with H26G, S52H
VL: B9 VL
notes: MYT9361 HC variant
B13: MYT11032 (antibody, V domains shown)
VH: B9 VH with H26G, S31H
VL: B9 VL
notes: MYT9361 HC variant
B14: MYT11036 (antibody, V domains shown)
VH: B9 VH with H26G, S35H
VL: B9 VL
notes: MYT9361 HC variant
B15: MYT11030 (antibody, V domains shown)
VH: B9 VH with H26G, L29H
VL: B9 VL
notes: MYT9361 HC variant
B16: MYT11028 (antibody, V domains shown)
VH: B9 VH with H26G, L27H
VL: B9 VL
notes: MYT9361 HC variant
B17: MYT11037 (antibody, V domains shown)
VH: B9 VH with H26G, V50H
VL: B9 VL
notes: MYT9361 HC variant
B18: MYT11038 (antibody, V domains shown)
VH: B9 VH with H26G, I51H
VL: B9 VL
notes: MYT9361 HC variant
B19: MYT11040 (antibody, V domains shown)
VH: B9 VH with H26G, A53H
VL: B9 VL
notes: MYT9361 HC variant
B20: MYT11034 (antibody, V domains shown)
VH: B9 VH with H26G, W33H
VL: B9 VL
notes: MYT9361 HC variant
B21: MYT11042 (antibody, V domains shown)
VH: B9 VH with H26G, G55H
VL: B9 VL
notes: MYT9361 HC variant
B22: MYT11043 (antibody, V domains shown)
VH: B9 VH with H26G, N56H
VL: B9 VL
notes: MYT9361 HC variant
B23: MYT11041 (antibody, V domains shown)
VH: B9 VH with H26G, G54H
VL: B9 VL
notes: MYT9361 HC variant
B24: MYT11044 (antibody, V domains shown)
VH: B9 VH with H26G, T57H
VL: B9 VL
notes: MYT9361 HC variant
B25: MYT11045 (antibody, V domains shown)
VH: B9 VH with H26G, Y58H
VL: B9 VL
notes: MYT9361 HC variant
B26: MYT11047 (antibody, V domains shown)
VH: B9 VH with H26G, A60H
VL: B9 VL
notes: MYT9361 HC variant
B27: MYT11046 (antibody, V domains shown)
VH: B9 VH with H26G, Y59H
VL: B9 VL
notes: MYT9361 HC variant
B28: MYT11035 (antibody, V domains shown)
VH: B9 VH with H26G, M34H
VL: B9 VL
notes: MYT9361 HC variant

Changes are numbered by the printed parent chain.

The target of the first assay is T1, Human PTK7. Briefly: cell-based or functional assay.
As to B1, the “Internalization, FOW @ 25 nM (fold over the wildtype, parental antibody)” value was 1.29 fold over parental antibody. On the same count and under the same terms, as for B2, the figure is 1.68 fold over parental antibody; as for B3, 1.77 fold over parental antibody; as for B4, 1.6 fold over parental antibody.

As for B5, the “Internalization, FOW @ 25 nM (fold over the wildtype, parental antibody)” value is 1.99 fold over parental antibody. For B6, the “Internalization, FOW @ 25 nM (fold over the wildtype, parental antibody)” value was 1.77 fold over parental antibody. Turning to B7, the “Internalization, FOW @ 25 nM (fold over the wildtype, parental antibody)” value is 1.16 fold over parental antibody. Take B8: the “Internalization, FOW @ 25 nM (fold over the wildtype, parental antibody)” value is 1.19 fold over parental antibody.

In the next assay the target is T2, Human PTK7 Protein, His Tag (Acro …). In words: BLI (Octet), antibody on anti-human Fc sensor, 50 nM PTK7; grade 2 = substantially similar binding relative to parent. A general note: In BLI a coated tip is dipped into the sample, and binding shifts an interference pattern.
With B9, the binding result was “binds”. For the molecule B10, the binding result is “binds”. B11: the binding result is “binds”.

Turning to B12, the binding result was “binds”. On the same count and under the same terms, the entry for B13 is “binds”. The same measure, in the same setting: the entry for B14 is “binds”. The same measure, in the same setting: the entry for B15 is “binds”; for B16 it is “binds”; for B17 it is “binds”. On to B18, for which the binding result is “binds”.

As for B19, the binding result is listed as “binds”. B20: the binding result is listed as “binds”. Same read-out and setting: as for B21, the entry is “binds”; as for B22, “binds”. Still for that read-out and setting: the entry for B23 is “binds”. The same measure, in the same setting: the entry for B24 is “binds”; for B25 it is “binds”; for B26 it is “binds”. For the molecule B27, the binding result is recorded as “binds”. On to B28, for which the binding result is recorded as “binds”.
